For three substances, percent of transfected cells with Venus complementation results are on record in article PMC4904203.

Experiment [1] concerns the target MEF2C fused to the C-terminal half of Venus (VC) (UniProt Q8CFN5). The experiment in a line: split reporter (BiFC, NanoBiT); Venus BiFC: VN and VC fusions co-transfected into C2C12 myoblasts with mCherry as transfection control; confocal imaging 24 h after transfection; cells with Venus complementation counted as percent of mCherry-positive cells (mean ± SD, three experiments); for Fig. 6a cells were first transfected with Trip6 siRNA or control siRNA.

In experiment [2] the target is nTRIP6 fused to the C-terminal half of Venus (VC). The description is as above. Conditions: scale: %.

Chain of UniProt Q8CFN5 (Q8CFN5 whole entry, the tested form may be a part): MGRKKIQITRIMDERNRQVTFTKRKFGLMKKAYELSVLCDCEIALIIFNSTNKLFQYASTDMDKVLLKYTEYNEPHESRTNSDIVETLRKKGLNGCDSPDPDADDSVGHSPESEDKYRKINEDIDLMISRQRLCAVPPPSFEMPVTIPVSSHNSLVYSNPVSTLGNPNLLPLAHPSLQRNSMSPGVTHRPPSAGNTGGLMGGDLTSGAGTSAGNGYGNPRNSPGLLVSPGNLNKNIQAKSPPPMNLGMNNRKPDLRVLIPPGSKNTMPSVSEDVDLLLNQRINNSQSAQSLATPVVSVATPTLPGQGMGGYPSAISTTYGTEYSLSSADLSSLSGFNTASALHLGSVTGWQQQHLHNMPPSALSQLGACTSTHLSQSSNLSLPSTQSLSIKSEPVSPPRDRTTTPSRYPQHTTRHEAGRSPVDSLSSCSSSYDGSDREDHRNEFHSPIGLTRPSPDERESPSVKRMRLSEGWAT

Regarding “nTRIP6 lacking the LIM domains (pre-LIM) fused to VN (domain or fragment)”, in experiment [1], the percent of transfected cells with Venus complementation turned out to be 65.5%.

Substance “nTRIP6 (nuclear isoform of TRIP6) fused to the N-terminal half of Venus (VN) (natural protein)” showed a percent of transfected cells with Venus complementation in experiment [1] of 70.6%.

“HDAC5-Flag fused to the N-terminal half of Venus (VN) (from UniProt Q9UQL6 1-1122) (enzyme)” registered a percent of transfected cells with Venus complementation in experiment [2] of 79.5.
